What was measured:
A2780adr cells = test: Cellular uptake, gold content by ICP-MS; format: in vitro ADME, human; details: 2 μM, 37 °C
Experimental: The uptake of 1 and 3, and Au1a by cancer cells and non-tumorigenic cells was examined in terms of the gold content in the cell lysates using ICP-MS.
B from 20.1 to 25 min and returned to initial conditions and equilibrated for 3 minutes.
The flow rate was 0.4 mL/min and the injection volume was 2 µL. The UPLC-QTOF-MS chromatograms of 1, 3, 4 and solvent control in acetonitrile were also recorded for the interpretation of UPLC-QTOF-MS chromatograms of the cell lysate.
Cellular uptake experiments. HCT116, A2780 and A2780adr (2×10 5 cells), and MIHA and NCM460 (3.5×10 5 cells) cells were grown on 6-well plates at 37 °C under an atmosphere of 5% CO2 for 48 h. […]
Au1a (2 µM; with 1 vol% DMSO). […] An aliquot of the cell suspension was subjected to Bio-rad protein assay with a microtitre plate reader at the absorbance at 595 nm, using bovine serum albumin as the protein standard. […] The solution mixture was heated at 65 °C with shaking overnight, and the gold content was determined by ICP-MS. […]
then removed and washed with PBS solution. The cells were then incubated with culture medium containing nanostructures of 1 (2 µM) and CellEvent Caspase-3/7 Green ReadyProbes Reagent (30 µL), or Au1a (2 µM; with 1 vol% DMSO) and CellEvent Caspase-3/7 Green ReadyProbes Reagent (30 µL) at 37 °C under an atmosphere of 5% CO2. […]

[1] = Transmission electron microscopy of nanostructures; format: physicochemical; details: self-assembled in PBS
Source text: (§1) On the other hand, the almost neutral zeta potentials of the nanostructures of 1 and 2 validated the presence of PEG pendant in the shell of the nanostructures. The identity of gold species in the core of the nanostructures was supported by the good contrast of the core in the TEM images (Fig. 1c and S3a ^†) and energy-dispersive X-ray (EDX) spectra (Fig. 1f).
The gold content in NC1 was confirmed by EDX (Fig. 1g).

[2] = Dynamic light scattering of nanostructures in PBS; format: physicochemical
Experimental: as §1
The gold content in NC1 was confirmed by EDX (Fig. 1g). […]
fetal bovine serum, ʟ-glutamine (2 mM) and penicillin/streptomycin (100 U/mL). […]
Physical measurements and instrumentation. 1H NMR spectra were recorded with a Bruker AVANCE 400 (400 MHz) or DPX-300 (300 MHz) Fourier transform NMR spectrometer at ambient temperature with tetramethylsilane (Me4Si) as an internal reference. MALDI-TOF mass spectra were recorded on a ABI4800 MALDI
TOF/TOF™ Analyzer using α-cyano-4-hydroxycinnamic acid with sodium trifluoroacetate as the matrix. Positive ion electrospray (ESI) mass spectra and ultra-performance liquid chromatography coupled quadrupole-time-of-flight mass spectrometry (UPLC-QTOF-MS) were recorded on a Waters Micromass Q-Tof
Premier quadrupole time-of-flight tandem mass spectrometer. Inductively coupled plasma mass spectra (ICP-MS) were recorded on Agilent 7500a inductively coupled plasma mass spectrometer (Agilent Technologies, CA, U.S.A.). […]

[3] = Hydrolysis in aqueous buffer solutions by 1H NMR; format: physicochemical; details: 24 h, 37 °C; pH 4 (1), pH 4 or 7.4 (2)
[4] = Systemic toxicity in nude mice bearing HCT116 xenografts (body weight, H&E histopathology, blood biochemistry); format: in vivo; details: HCT116 xenograft nude mice
Experimental: The anti-tumor experiments using mice were approved by the animal ethics committees of Jinan University and The University of Hong Kong. […]
every 2 days for 24 days. The control group received equal volume of PBS only.
During the treatment period, the tumor volume and body weight of the nude mice were measured per two days. The tumor volume was calculated by the equation:
Volume (mm3) = l×w2/2, where l and w were the length and width of the tumor. At the end of the treatment, the nude mice were sacrificed and the tumor weight was […]
H&E staining and immunohistochemical (IHC) analysis of mice tissues. For […]
formaldehyde, embedded with paraffin and sectioned. Subsequently, the tissues were stained with hematoxylin and eosin for histological observation under an optical microscope (magnification: 10×). The expression of p53, Ki67, VEGFR2 and TUNEL was determined by IHC methods as reported previously. S7
Hematological analysis of nude mice bearing HCT116 xenograft. The blood samples of mice without bearing HCT116 xenograft and xenograft-bearing mice treated with 1, 3 and PBS control were collected. The plasma was obtained by centrifuging the blood sample with speed at 3000 rpm. The plasma was then subjected to hematological analysis to determine biochemical indexes of alanine aminotransferase (ALT), asparatate aminotransferase (AST), globulin (GLB), blood urea nitrogen (BUN), uric acid (UA), creatinine (CREA), lactate dehydrogenase (LDH) and creatine kinase (CK) in blood of the mice.
A2780cis xenograft nude mice model was constructed by injecting 2.5×10^6 cells to the right back flank of female BALB/c nude mice. When the tumor volume […]
animal study. The A2780cis xenograft nude mice were randomly divided into 2 groups (n = 5 per group). 1 in PBS (4 mg/kg) or PBS solvent control were injected to the nude mice by intravenous injection once every 2–3 days for 13 days. During the treatment period, the tumor volume and body weight of the nude mice were measured

With `C1=Cc2nc1c(-c1ccccc1)c1ccc([n-]1)c(-c1ccccc1)c1nc(c(-c3ccccc3)c3ccc([n-]3)c2-c2ccccc2)C=C1.[Au+3].[Cl-]` [Au1a, [Au(TPP)]Cl, reference compound] the “incubation time after which the amount in A2780adr cells decreases” value (A2780adr cells) was 0.5 h.

In the case of “[Au(TPP–CONH–PEG5000–OCH3)]Cl [Compound 2]”, the “diameter of nanostructures (TEM)” value [1] is reported as roughly 200 nm, the “Intensity-averaged signals from dynamic light scattering (hydrodynamic diameter)” value [2] is reported as 177.1 ± 81.2 nm and the “change in 1H NMR spectra after incubation in buffer” value [3] is reported as “no observable change in the NMR spectra”.

For `COC(=O)c1ccc(C2=C3C=CC(=N3)C(c3ccccc3)=c3ccc4[n]3[Au+][n]3c(ccc32)C(c2ccccc2)=C2C=CC(=N2)C=4c2ccccc2)cc1.[Cl-]` [Compound 3, [Au(TPP–COOCH3)]^+], the “incubation time after which the amount in A2780adr cells decreases” value (A2780adr cells) was 0.75 h, the “blood biochemistry (organ damage indicators)” value ([4]; 4 mg kg^–1 i.v., 24 days, ALT, GLB, BUN, CK for 1) was “significant damage in the lung, liver and kidney of the mice” and the “histopathological analysis of tissues (H&E)” value ([4]; i.v., 24 days (3: 4 mg kg^–1)) was “damage in normal lung, liver and kidney tissues”.

With “[Au(TPP–COO–PEG5000–OCH3)]Cl [Compound 1]” the “diameter of nanostructures (TEM)” value [1] was “ca. 120 nm”, the “Intensity-averaged signals from dynamic light scattering (hydrodynamic diameter)” value [2] was 120.8 ± 7.2 nm and the “change in 1H NMR spectra after incubation in buffer” value [3] was “disappearance of peaks from protons of –COOCH 2CH 2–”. The “mouse death / body weight” value ([4]; 2 or 4 mg kg^–1 i.v., 24 days) was “no mouse death or significant loss in body weight”.
